Legend:
[1] = target: T1, TetR (class B, from Tn10) (Escherichia coli, UniProt P04483); test: BLI, release of TetR roadblock from tetO DNA; type: binding; conditions: 3 uM ahTc, 1 uM TetR, 1 uM ParB, 1 mM CTP, 170 bp closed parS-tetO DNA, Mg2+, 22 °C
T1 construct: C-terminal His6 (pET21b), E. coli Rosetta (DE3)

[2] = target: T2, Xanthomonas campestris ParB (Xanthomonas campestris, UniProt Q8P466); test: BLI, ParB accumulation on closed […] bp parS DNA; type: biochemical; conditions: 0.01 mM CTP, 1 uM ParB, Mg2+, pH 8.0, 22 °C
T2 construct: N-terminal His6-MBP (TEV) tag kept, E. coli Rosetta (DE3); chromosomal ParB
T2 sequence (Q8P466 1-309): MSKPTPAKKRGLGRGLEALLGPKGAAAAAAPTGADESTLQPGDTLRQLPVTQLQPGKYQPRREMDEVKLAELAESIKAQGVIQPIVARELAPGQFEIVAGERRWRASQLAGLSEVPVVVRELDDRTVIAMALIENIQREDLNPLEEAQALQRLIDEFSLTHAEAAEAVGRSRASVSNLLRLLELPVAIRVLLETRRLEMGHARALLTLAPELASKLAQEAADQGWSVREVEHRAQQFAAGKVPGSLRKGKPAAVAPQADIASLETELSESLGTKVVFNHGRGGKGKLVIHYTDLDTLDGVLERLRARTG

Caulobacter ParB [3] = target: T3, Caulobacter ParB (Caulobacter vibrioides, UniProt B8GW30, Q35C/C297S); test: BMOE cross-linking of N-terminal domains, SDS-PAGE; type: binding; conditions: 1 mM CTP, 10 uM ParB, no parS DNA, Mg2+, pH 7.4, room temperature
T3 construct: full-length, C-terminal His6 (pET21b), E. coli Rosetta (DE3), dimer

Zymomonas mobilis ParB = target: T4, Zymomonas mobilis ParB (Zymomonas mobilis, UniProt F8ETX3); test: BLI, ParB accumulation on closed […] bp parS DNA; type: biochemical; conditions: 0.01 mM CTP, 1 uM ParB, Mg2+, pH 8.0, 22 °C
T4 construct: N-terminal His6-MBP (TEV) tag kept, E. coli Rosetta (DE3); chromosomal ParB
T4 sequence (F8ETX3 1-311): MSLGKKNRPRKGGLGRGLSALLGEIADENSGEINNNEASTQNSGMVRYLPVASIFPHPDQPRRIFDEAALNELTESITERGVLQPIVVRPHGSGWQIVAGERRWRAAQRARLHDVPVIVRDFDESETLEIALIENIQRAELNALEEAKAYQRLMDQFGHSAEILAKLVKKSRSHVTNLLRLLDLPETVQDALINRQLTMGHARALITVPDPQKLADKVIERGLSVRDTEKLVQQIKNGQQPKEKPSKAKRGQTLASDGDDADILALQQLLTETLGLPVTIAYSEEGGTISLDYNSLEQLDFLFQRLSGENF

Caulobacter ParB [4] = target: T5, Caulobacter ParB (Caulobacter vibrioides, UniProt B8GW30); test: DRaCALA membrane-spotting with radiolabelled CTP; type: binding; conditions: 22 bp parS DNA needed, Mg2+, pH 8.0, room temperature; labelled compound
T5 construct: full-length, C-terminal His6 (pET21b), E. coli Rosetta (DE3), dimer

Caulobacter ParB [5] = target: T6, Caulobacter ParB (Caulobacter vibrioides, UniProt B8GW30, C297S); test: BLI, ParB accumulation on closed […] bp parS DNA; type: biochemical; conditions: 1 mM CTP, 1 uM ParB, Mg2+, pH 8.0, 22 °C; legend prints C97S in one place
T6 construct: full-length, C-terminal His6 (pET21b), E. coli Rosetta (DE3), dimer
T6 sequence (B8GW30 whole entry C297S): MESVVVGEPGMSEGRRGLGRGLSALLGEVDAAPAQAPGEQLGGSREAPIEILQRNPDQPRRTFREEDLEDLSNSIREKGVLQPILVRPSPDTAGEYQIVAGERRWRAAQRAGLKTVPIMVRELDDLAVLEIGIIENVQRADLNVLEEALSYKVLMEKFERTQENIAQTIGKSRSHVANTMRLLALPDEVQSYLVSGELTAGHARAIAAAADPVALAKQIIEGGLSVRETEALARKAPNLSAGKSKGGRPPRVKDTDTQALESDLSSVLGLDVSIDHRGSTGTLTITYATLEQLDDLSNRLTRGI

[6] = target: T7, Caulobacter ParB-His6 (WT) (Caulobacter crescentus, UniProt B8GW30 1-304); test: BLI; 1 mM CTP (enhanced); BLI at 22 C: 100 mM Tris-HCl pH 8.0, 100 mM NaCl, 1 mM MgCl2, 0.005% Tween 20; 1 uM protein dimer. Pull-down: same buffer, room temperature, 5 min, 1 uM ParB, 1 mM NTP; conditions: protein: recombinant; tags: C-terminal His6; chain copies: 2; label: biotin at both 5' ends; blunt; both ends tethered (closed); polymerase may add 3' A
T7 sequence: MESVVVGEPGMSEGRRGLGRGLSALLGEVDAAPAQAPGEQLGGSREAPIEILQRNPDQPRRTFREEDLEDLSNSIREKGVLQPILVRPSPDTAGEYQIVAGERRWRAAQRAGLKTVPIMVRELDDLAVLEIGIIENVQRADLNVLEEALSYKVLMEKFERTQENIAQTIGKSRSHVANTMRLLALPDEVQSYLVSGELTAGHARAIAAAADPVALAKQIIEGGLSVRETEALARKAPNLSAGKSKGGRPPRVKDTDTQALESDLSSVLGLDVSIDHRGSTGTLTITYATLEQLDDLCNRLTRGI

[7] = target: T7, Caulobacter ParB-His6 (WT); test: BLI; 0.125-2 uM ParB, no NTP; BLI at 22 C: 100 mM Tris-HCl pH 8.0, 100 mM NaCl, 1 mM MgCl2, 0.005% Tween 20; 1 uM protein dimer. Pull-down: same buffer, room temperature, 5 min, 1 uM ParB, 1 mM NTP; conditions: protein: recombinant; tags: C-terminal His6; chain copies: 2; label: 5' biotin on strand 1; blunt
[8] = target: T8, TetR-His6 (class B, from Tn10) (Tn10, UniProt P04483 1-207); test: BLI; no NTP, Mg2+; BLI at 22 C: 100 mM Tris-HCl pH 8.0, 100 mM NaCl, 1 mM MgCl2, 0.005% Tween 20; 1 uM protein dimer. Pull-down: same buffer, room temperature, 5 min, 1 uM ParB, 1 mM NTP; conditions: protein: recombinant; tags: C-terminal His6; chain copies: 2; label: 5' biotin on strand 1; blunt
T8 sequence (P04483 whole entry): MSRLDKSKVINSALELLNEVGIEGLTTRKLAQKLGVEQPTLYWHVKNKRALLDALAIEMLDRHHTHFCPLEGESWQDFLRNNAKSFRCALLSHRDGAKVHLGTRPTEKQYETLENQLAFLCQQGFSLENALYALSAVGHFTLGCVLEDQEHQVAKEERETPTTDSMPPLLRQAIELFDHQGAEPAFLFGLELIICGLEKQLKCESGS

[9] = target: T7, Caulobacter ParB-His6 (WT); test: BLI; ParB-CTP prebound; dissociation in 1 mM CTP, Mg2+; BLI at 22 C: 100 mM Tris-HCl pH 8.0, 100 mM NaCl, 1 mM MgCl2, 0.005% Tween 20; 1 uM protein dimer. Pull-down: same buffer, room temperature, 5 min, 1 uM ParB, 1 mM NTP; conditions: protein: recombinant; tags: C-terminal His6; chain copies: 2; label: biotin at both 5' ends; blunt; both ends tethered (closed); polymerase may add 3' A
[10] = target: T7, Caulobacter ParB-His6 (WT); test: BLI; 1 mM CTP, Mg2+; BLI at 22 C: 100 mM Tris-HCl pH 8.0, 100 mM NaCl, 1 mM MgCl2, 0.005% Tween 20; 1 uM protein dimer. Pull-down: same buffer, room temperature, 5 min, 1 uM ParB, 1 mM NTP; conditions: protein: recombinant; tags: C-terminal His6; chain copies: 2; label: biotin at both 5' ends; blunt; both ends tethered (closed); polymerase may add 3' A
[11] = target: T7, Caulobacter ParB-His6 (WT); test: BLI; 1 mM CTP, Mg2+ (no increase in response); BLI at 22 C: 100 mM Tris-HCl pH 8.0, 100 mM NaCl, 1 mM MgCl2, 0.005% Tween 20; 1 uM protein dimer. Pull-down: same buffer, room temperature, 5 min, 1 uM ParB, 1 mM NTP; conditions: protein: recombinant; tags: C-terminal His6; chain copies: 2; label: biotin at both 5' ends; blunt; both ends tethered (closed); polymerase may add 3' A
[12] = target: T8, TetR-His6 (class B, from Tn10); test: BLI; 0.125-2 uM TetR, no NTP; BLI at 22 C: 100 mM Tris-HCl pH 8.0, 100 mM NaCl, 1 mM MgCl2, 0.005% Tween 20; 1 uM protein dimer. Pull-down: same buffer, room temperature, 5 min, 1 uM ParB, 1 mM NTP; conditions: protein: recombinant; tags: C-terminal His6; chain copies: 2; label: 5' biotin on strand 1; blunt
[13] = target: T7, Caulobacter ParB-His6 (WT); test: BLI; 1 mM CDP, Mg2+; BLI at 22 C: 100 mM Tris-HCl pH 8.0, 100 mM NaCl, 1 mM MgCl2, 0.005% Tween 20; 1 uM protein dimer. Pull-down: same buffer, room temperature, 5 min, 1 uM ParB, 1 mM NTP; conditions: protein: recombinant; tags: C-terminal His6; chain copies: 2; label: 5' biotin on strand 1; blunt
[14] = target: the molecule itself; test: cross-linking; 10 µM ParB (Q35C C297S) ± 1 mM NTP (CTP, CTPγS or other NTPs) ± 0.5 µM 22 bp parS dsDNA in 10 mM Tris-HCl pH 7.4, 100 mM NaCl, 1 mM MgCl2, room temperature, 15 min or 1-30 min time course, then 1 mM BMOE; SDS-PAGE, InstantBlue stain

T1 sequence (P04483 whole entry): as above

Q: For `Cc1c2c(c(O)c3c(O)cccc13)C(=O)[C@]1(O)C(=O)C(C(N)=O)=C(O)[C@@H](N(C)C)[C@@H]1C2` [Anhydrotetracycline], which “BLI, release of TetR roadblock from tetO DNA” value [1] is on record?
A: addition of anhydrotetracycline (ahTc), a negative effector of TetR

Q: What does the source list for `Nc1ccn([C@@H]2O[C@H](COP(=O)(O)OP(=O)(O)OP(=O)(O)O)[C@@H](O)[C@H]2O)c(=O)n1` [CTP]?
A: BLI, ParB accumulation on closed 169 bp parS DNA [2]: CTP facilitates the association of eight ParB orthologs with DNA; BMOE cross-linking of N-terminal domains, SDS-PAGE (Caulobacter ParB [3]): cross-linking of ParB (Q35C C297S) was also enhanced by CTP and CTPγS; BLI, ParB accumulation on closed 169 bp parS DNA (Zymomonas mobilis ParB): CTP facilitates the association of eight ParB orthologs with DNA; DRaCALA membrane-spotting with radiolabelled CTP (Caulobacter ParB [4]): Caulobacter ParB binds to radiolabeled CTP in the presence of parS DNA; BLI, ParB accumulation on closed 169 bp parS DNA (Caulobacter ParB [5]): Both ParB (C297S) and ParB (Q35C C297S) were competent at spreading

B1: 170 bp parS-tetO closed DNA (dsDNA)
DNA 1: CGCCAGGGTTTTCCCAGTCACGACGTTGTAAAACGACGGCCAGAATTCGCAACGTGTGTTTCACGTGAAACAGCCTTGAACTGATAACGACTCTATCATTGATAGAGTGTTCTCTCCACGGGATCCCCAGGCATGCAAGCTTGGCGTAATCATGGTCATAGCTGTTTCCT
DNA 2: AGGAAACAGCTATGACCATGATTACGCCAAGCTTGCATGCCTGGGGATCCCGTGGAGAGAACACTCTATCAATGATAGAGTCGTTATCAGTTCAAGGCTGTTTCACGTGAAACACACGTTGCGAATTCTGGCCGTCGTTTTACAACGTCGTGACTGGGAAAACCCTGGCG
Q: Does B1 bind [6]?
A: binds

B2: 28 bp tetO (dsDNA)
DNA 1: GGGGACTCTATCATTGATAGAGTATGC
DNA 2: GCATACTCTATCAATGATAGAGTCCCC
Q: Does B2 bind [7]?
A: no binding

Q: Does B2 bind [8]?
A: binds

B3: 169 bp parS closed DNA (dsDNA)
DNA 1: CGCCAGGGTTTTCCCAGTCACGACGTTGTAAAACGACGGCCAGTGAATTCGAGCTCGGTACCCGCAGGAGGACGTAGGGTAGGGGGATGTTTCACGTGAAACAGGGGATCCTCTAGAGTCGACCTGCAGGCATGCAAGCTTGGCGTAATCATGGTCATAGCTGTTTCCT
DNA 2: AGGAAACAGCTATGACCATGATTACGCCAAGCTTGCATGCCTGCAGGTCGACTCTAGAGGATCCCCTGTTTCACGTGAAACATCCCCCTACCCTACGTCCTCCTGCGGGTACCGAGCTCGAATTCACTGGCCGTCGTTTTACAACGTCGTGACTGGGAAAACCCTGGCG
Q: What does the source list for B3?
A: binding signal [9]: ~5 fold slower dissociation vs buffer without CTP; binding signal [10]: ~12 fold BLI response vs no NTP

B4: 169 bp scrambled parS closed DNA (dsDNA)
DNA 1: CGCCAGGGTTTTCCCAGTCACGACGTTGTAAAACGACGGCCAGTGAATTCGAGCTCGGTACCCGCAGGAGGACGTAGGGTAGGGGGAAATTACACTGAGTTTAGGGGATCCTCTAGAGTCGACCTGCAGGCATGCAAGCTTGGCGTAATCATGGTCATAGCTGTTTCCT
DNA 2: AGGAAACAGCTATGACCATGATTACGCCAAGCTTGCATGCCTGCAGGTCGACTCTAGAGGATCCCCTAAACTCAGTGTAATTTCCCCCTACCCTACGTCCTCCTGCGGGTACCGAGCTCGAATTCACTGGCCGTCGTTTTACAACGTCGTGACTGGGAAAACCCTGGCG
Q: Does B4 bind [11]?
A: no binding

B5: 20 bp parS (dsDNA)
DNA 1: GGGATGTTTCACGTGAAACA
DNA 2: TGTTTCACGTGAAACATCCC
Q: What does the source list for B5?
A: binding result [12]: no binding; binding result [13]: binds

B6: Caulobacter ParB-His6 (Q35C C297S) (natural protein, Caulobacter crescentus, UniProt P0CAV8 1-304, looked up)
chain: MESVVVGEPGMSEGRRGLGRGLSALLGEVDAAPACAPGEQLGGSREAPIEILQRNPDQPRRTFREEDLEDLSNSIREKGVLQPILVRPSPDTAGEYQIVAGERRWRAAQRAGLKTVPIMVRELDDLAVLEIGIIENVQRADLNVLEEALSYKVLMEKFERTQENIAQTIGKSRSHVANTMRLLALPDEVQSYLVSGELTAGHARAIAAAADPVALAKQIIEGGLSVRETEALARKAPNLSAGKSKGGRPPRVKDTDTQALESDLSSVLGLDVSIDHRGSTGTLTITYATLEQLDDLSNRLTRGI
notes: ParB, chromosome partitioning protein of Caulobacter crescentus; the cross-link reports engagement of the N-terminal domains of two subunits; The lone native cysteine C297 was changed to serine and Q35C was engineered in the N-terminal domain; Cloning in pET21b may add linker residues before the His6 tag (surmised); also called ParB (Q35C C297S); ParB (C297S Q35C); not shown: His6, C-terminal, …
Q: Does B6 bind [14]?
A: binds

From PMC7053999, “ParB spreading on DNA requires cytidine triphosphate in vitro” (eLife, 2020)
